The source of these data is doi:10.1101/2023.11.29.569174v1.

Common to all, as to assay: purified protein
Substrate in data set [1]: CC(C)=CCC/C(C)=C/COP(=O)(O)OP(=O)(O)O
The note with it: pH 8.0, 22 °C, 10 mM Mg acetate, 40 mM NaCl, 0.01% Tween 20.

Substrate in data set [2]: CC(C)=CCOP(=O)(O)OP(=O)(O)O
As to conditions: pH 8.0, 22 °C, 10 mM Mg acetate, 40 mM NaCl, 0.01% Tween 20.

Substrate in data set [3]: C[C@@](O)(CCOP(=O)(O)OP(=O)(O)O)CC(=O)O
The note with it: pH 8.0, 22 °C, 10 mM Mg acetate, 40 mM NaCl, 0.01% Tween 20.

Substrate in data set [4]: CC(C)=CCC/C(C)=C/CC/C(C)=C/CC/C(C)=C/COP(=O)(O)OP(=O)(O)O
The note with it: pH 8.0, 22 °C, 10 mM Mg acetate, 40 mM NaCl, 0.01% Tween 20.

Substrate in data set [5]: CC(C)=CCC/C(C)=C/CC/C(C)=C/CO[P@@](=O)(O)OP(=O)(O)O
The note with it: pH 8.0, 22 °C, 10 mM Mg acetate, 40 mM NaCl, 0.01% Tween 20.

Substrate in data set [6]: C=C(C)CCO[P@@](=O)(O)OP(=O)(O)O
The note with it: pH 8.0, 22 °C, 10 mM Mg acetate, 40 mM NaCl, 0.01% Tween 20.

Substrate in data set [7]: Nc1nc2c(ncn2[C@H]2C[C@H](O)[C@@H](COP(=O)(O)OP(=O)(O)OP(=O)(O)O)O2)c(=O)[nH]1
The note with it: pH 8.0, 22 °C, 10 mM Mg acetate, 40 mM NaCl.

B1: NUDT18 (Homo sapiens) (protein)
chain: MASEGLAGALASVLAGQGSSVHSCDSAPAGEPPAPVRLRKNVCYVVLAVFLSEQDEVLLIQEAKRECRGSWYLPAGRMEPGETIVEALQREVKEEAGLHCEPETLLSVEERGPSWVRFVFLARPTGGILKTSKEADAESLQAAWYPRTSLPTPLRAHDILHLVELAAQYRQQARHPLILPQELPCDLVCQRLVATFTSAQTVWVLVGTVGMPHLPVTACGLDPMEQRGGMKMAVLRLLQECLTLHHLVVEIKGLLGLQHLGRDHSDGICLNVLVTVAFRSPGIQDEPPKVRGENFSWWKVMEEDLQSQLLQRLQGSSVVPVNR
For B1, the Km is given as 3.7 ± 0.4 µM in data set [1]; 9.8 ± 2.9 µM in data set [2]; 26.8 ± 2.8 µM in data set [3]; 17.9 ± 3.4 µM in data set [4]; 18.8 ± 3.9 µM in data set [5]; 12.4 ± 2.6 µM in data set [6]. The kcat was found to be 0.78 s⁻¹ in data set [1]; 0.94 s⁻¹ in data set [2]; 0.55 s⁻¹ in data set [3]; 0.15 s⁻¹ in data set [4]; 0.52 s⁻¹ in data set [5]; 0.87 s⁻¹ in data set [6].

B2: NUDT15 (Homo sapiens) (protein)
chain: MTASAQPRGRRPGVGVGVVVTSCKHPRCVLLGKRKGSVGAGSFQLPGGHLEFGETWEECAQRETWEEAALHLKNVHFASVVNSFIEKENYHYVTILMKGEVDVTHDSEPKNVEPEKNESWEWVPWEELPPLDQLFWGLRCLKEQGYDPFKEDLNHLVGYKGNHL
On to B2, for which the Michaelis-Menten constant (Km) in data set [1] is given as 18.7 ± 0.2 µM; in data set [2] it was 159.3 ± 40.5 µM; in data set [7] it was 21 µM; in data set [6] it was 63.6 ± 19.4 µM. Further, the catalytic constant (kcat) was determined as 0.72 s⁻¹ in data set [1], 0.94 s⁻¹ in data set [2], 0.637 s⁻¹ in data set [7] and 0.49 s⁻¹ in data set [6].

Broadly, the Km is the concentration of substrate that gives half-maximal velocity. For orientation: kcat means the number of substrate molecules converted per active site and unit of time at saturation.
